± gives the uncertainty stated by the source.
Assay: protein stability index of a GFP-peptide fusion (yeast GPS) (PSI 1-4); higher = more stable; sorted into four equal gates, so the index is relative within each strain
Procedure, shortened: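 Each library plasmid carries Cherry plus GFP with a tiled 17-residue yeast protein peptide fused downstream, and the pooled library was carried in yeast. Mid-log cultures in leucine-free medium were sorted into four equal gates by GFP/Cherry ratio. Reads from Illumina sequencing of PCR-amplified plasmids from each gate were assigned to strains by barcodes. Per peptide, the protein stability index was computed as the summed products of gate read frequency and gate number.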

## DIDDILKKGEQKTQELN [ISW2]
doa10∆
  protein stability index: 3.31 ± 0.22
pdr5∆
  protein stability index: 3.21 ± 0.1
san1∆
  protein stability index: 3.44 ± 0.099
ubr1∆
  protein stability index: 3.56 ± 0.092

## PSYYYYVDPETTYTYQQ [ROX3]
doa10∆
  protein stability index: 2.93 ± 0.075
pdr5∆
  protein stability index: 3.09 ± 0.079
san1∆
  protein stability index: 2.85 ± 0.053
ubr1∆
  protein stability index: 3.16 ± 0.07

## GIRGKLVTIEGALIHKA [SMC1]
doa10∆
  protein stability index: 3.33 ± 0.2
pdr5∆
  protein stability index: 2.95 ± 0.17
san1∆
  protein stability index: 2.88 ± 0.13

## EPIKLEPVKEYTFKTSM [YMR129W/POM152]
doa10∆
  protein stability index: 2.22 ± 0.098
pdr5∆
  protein stability index: 2.29 ± 0.08
san1∆
  protein stability index: 1.99 ± 0.17

## SGGEREIQRTMLELLNQ [RPT2]
doa10∆
  protein stability index: 3.46 ± 0.15
pdr5∆
  protein stability index: 3.74 ± 0.2
ubr1∆
  protein stability index: 3.15 ± 0.18

## QVQGQQQAQSFVGKKNT [SSN3]
doa10∆
  protein stability index: 2.55 ± 0.053
pdr5∆
  protein stability index: 2.69 ± 0.048
san1∆
  protein stability index: 2.57 ± 0.052
ubr1∆
  protein stability index: 2.57 ± 0.041

## AINIMNRSNDALIKFME [FAS2]
doa10∆
  protein stability index: 3.19 ± 0.15
pdr5∆
  protein stability index: 3.45 ± 0.15
san1∆
  protein stability index: 3.26 ± 0.093
ubr1∆
  protein stability index: 3.38 ± 0.15

## QYSLERNSPFWWTNSHH [PRP8]
doa10∆
  protein stability index: 2.56 ± 0.078
pdr5∆
  protein stability index: 2.79 ± 0.065
san1∆
  protein stability index: 2.4 ± 0.057
ubr1∆
  protein stability index: 2.69 ± 0.052

## NSDLEFNTFWDEKGNEI [ARP9]
doa10∆
  protein stability index: 3.41 ± 0.08
pdr5∆
  protein stability index: 3.25 ± 0.12
san1∆
  protein stability index: 3.31 ± 0.12
ubr1∆
  protein stability index: 3.34 ± 0.077

## PNLNMKYRKRQLVTREA [FAS2]
doa10∆
  protein stability index: 3.68 ± 0.15
pdr5∆
  protein stability index: 3.13 ± 0.11
san1∆
  protein stability index: 3 ± 0.095
ubr1∆
  protein stability index: 3.05 ± 0.081

## VIDGKLPFMQNAGPNSN [YDL088C/ASM4]
doa10∆
  protein stability index: 2.93 ± 0.049
pdr5∆
  protein stability index: 3.04 ± 0.054
san1∆
  protein stability index: 2.91 ± 0.037
ubr1∆
  protein stability index: 2.92 ± 0.04

## PLLRKVVDRESDIPKTT [PRE4]
doa10∆
  protein stability index: 2.54 ± 0.11
pdr5∆
  protein stability index: 2.46 ± 0.091
san1∆
  protein stability index: 1.87 ± 0.13
ubr1∆
  protein stability index: 2.79 ± 0.067

## SKRLPLRFPEHTSSGSV [BRR2]
doa10∆
  protein stability index: 2.9 ± 0.096
pdr5∆
  protein stability index: 2.97 ± 0.083
san1∆
  protein stability index: 2.74 ± 0.14
ubr1∆
  protein stability index: 2.34 ± 0.065

## HFELGGEKKQKGQALQF [RPL42A]
doa10∆
  protein stability index: 2.72 ± 0.17
pdr5∆
  protein stability index: 2.88 ± 0.1
san1∆
  protein stability index: 2.46 ± 0.094
ubr1∆
  protein stability index: 2.76 ± 0.13

## IQTVVISLLALPHSPLW [YML031W/NDC1]
doa10∆
  protein stability index: 1.36 ± 0.076
pdr5∆
  protein stability index: 1.58 ± 0.063
san1∆
  protein stability index: 1.36 ± 0.1
ubr1∆
  protein stability index: 2 ± 0.049

## FIMVKGCIPGNRKRIVT [RPL3]
doa10∆
  protein stability index: 1.39 ± 0.063
pdr5∆
  protein stability index: 1.48 ± 0.08
san1∆
  protein stability index: 1.57 ± 0.2
ubr1∆
  protein stability index: 1.28 ± 0.06

## KSGKFCSHCGCVYVPNF [SNM1]
doa10∆
  protein stability index: 2.48 ± 0.068
pdr5∆
  protein stability index: 1.79 ± 0.055
san1∆
  protein stability index: 1.7 ± 0.11
ubr1∆
  protein stability index: 1.42 ± 0.062

## QPSDVMFNDLNSMDISM [MED2]
doa10∆
  protein stability index: 2.63 ± 0.043
pdr5∆
  protein stability index: 2.99 ± 0.053
san1∆
  protein stability index: 3.11 ± 0.043
ubr1∆
  protein stability index: 2.76 ± 0.048

## REQYETQVALNESEKDQ [UBP6]
doa10∆
  protein stability index: 3.1 ± 0.069
pdr5∆
  protein stability index: 2.66 ± 0.065
san1∆
  protein stability index: 2.69 ± 0.067
ubr1∆
  protein stability index: 2.91 ± 0.051

## RPKCGDCGSALQGISTL [RPL34A]
doa10∆
  protein stability index: 1.34 ± 0.08
pdr5∆
  protein stability index: 1.42 ± 0.067
san1∆
  protein stability index: 1.32 ± 0.1
ubr1∆
  protein stability index: 1.41 ± 0.052

## KAAAGAGSAALKIIHDT [RPO31]
doa10∆
  protein stability index: 3.45 ± 0.13
pdr5∆
  protein stability index: 1.8 ± 0.17
san1∆
  protein stability index: 1.72 ± 0.13
ubr1∆
  protein stability index: 1.77 ± 0.18

## GTLGEIFIRCNNVLYIR [SMX3]
doa10∆
  protein stability index: 3.57 ± 0.21
pdr5∆
  protein stability index: 3.27 ± 0.1
san1∆
  protein stability index: 2.9 ± 0.1
ubr1∆
  protein stability index: 3.26 ± 0.1

## PVDVDFNLDLDDIVSHQ [REC8]
pdr5∆
  protein stability index: 3.4 ± 0.12

## NTTTYKSRPDRPKPVSP [SNF5]
doa10∆
  protein stability index: 3.09 ± 0.045
pdr5∆
  protein stability index: 3.12 ± 0.05
san1∆
  protein stability index: 3 ± 0.047
ubr1∆
  protein stability index: 2.97 ± 0.042

## GDEGYNEDMVRRANFYK [SNF12]
doa10∆
  protein stability index: 3.38 ± 0.14
pdr5∆
  protein stability index: 3.36 ± 0.17
san1∆
  protein stability index: 3.44 ± 0.076
ubr1∆
  protein stability index: 3.45 ± 0.14

## AFPKDDRSKPVALTSFL [RPL3]
doa10∆
  protein stability index: 2.77 ± 0.1
pdr5∆
  protein stability index: 2.75 ± 0.083
san1∆
  protein stability index: 3.33 ± 0.054
ubr1∆
  protein stability index: 1.95 ± 0.045

## VKKPHRYKPGTVALREI [HHT1]
doa10∆
  protein stability index: 3.15 ± 0.14
pdr5∆
  protein stability index: 3.17 ± 0.1
san1∆
  protein stability index: 2.75 ± 0.094
ubr1∆
  protein stability index: 3.25 ± 0.12

## DDLIAEENPIMQTALRR [QCR7]
pdr5∆
  protein stability index: 3.24 ± 0.22
san1∆
  protein stability index: 2.92 ± 0.15
ubr1∆
  protein stability index: 3.06 ± 0.13

## IEEQGWGGFPLDISVFL [TAF14]
doa10∆
  protein stability index: 3.38 ± 0.063
pdr5∆
  protein stability index: 3.4 ± 0.053
san1∆
  protein stability index: 3.35 ± 0.048
ubr1∆
  protein stability index: 3.33 ± 0.047

## YFLVLSPYGNLQNDLIH [RPN5]
doa10∆
  protein stability index: 1.92 ± 0.091
pdr5∆
  protein stability index: 2.42 ± 0.1
san1∆
  protein stability index: 2.64 ± 0.089
ubr1∆
  protein stability index: 2.67 ± 0.14

## FQITLSSDDLQNCWSLI [SSN8]
doa10∆
  protein stability index: 2.11 ± 0.049
pdr5∆
  protein stability index: 2.33 ± 0.063
san1∆
  protein stability index: 2.22 ± 0.062
ubr1∆
  protein stability index: 1.91 ± 0.045

## DESDSENDIEIKGPEFK [YLR335W/NUP2]
doa10∆
  protein stability index: 2.88 ± 0.11
pdr5∆
  protein stability index: 2.92 ± 0.21
san1∆
  protein stability index: 3.03 ± 0.13
ubr1∆
  protein stability index: 2.96 ± 0.095

## MAQRVTFRRRNPYNTRS [RPL34A]
doa10∆
  protein stability index: 1.55 ± 0.043
pdr5∆
  protein stability index: 1.82 ± 0.047
san1∆
  protein stability index: 1.54 ± 0.072
ubr1∆
  protein stability index: 1.77 ± 0.043

## LIVRAKNHTHNLPGNIT [RRP4]
doa10∆
  protein stability index: 2.77 ± 0.071
pdr5∆
  protein stability index: 2.96 ± 0.049
san1∆
  protein stability index: 2.89 ± 0.066
ubr1∆
  protein stability index: 2.94 ± 0.052

## VMLRLLLVVIFKKTLRS [SRB4]
doa10∆
  protein stability index: 1.59 ± 0.068
pdr5∆
  protein stability index: 1.56 ± 0.057
san1∆
  protein stability index: 1.25 ± 0.098
ubr1∆
  protein stability index: 1.23 ± 0.088

## KLSIAEERDRRRAQQGL [RPS4A]
doa10∆
  protein stability index: 2.11 ± 0.06
pdr5∆
  protein stability index: 2.19 ± 0.069
san1∆
  protein stability index: 2.49 ± 0.095
ubr1∆
  protein stability index: 1.6 ± 0.063

## SILVIVQKILPLSNEVF [SWI1]
doa10∆
  protein stability index: 1.37 ± 0.045
pdr5∆
  protein stability index: 1.34 ± 0.039
san1∆
  protein stability index: 1.3 ± 0.073
ubr1∆
  protein stability index: 1.56 ± 0.037

## SCGEEEFFSTNWLSIFN [REC8]
doa10∆
  protein stability index: 3.33 ± 0.098
pdr5∆
  protein stability index: 3.29 ± 0.073
san1∆
  protein stability index: 3.34 ± 0.1
ubr1∆
  protein stability index: 2.96 ± 0.087

## ILSTTLDPTDDEGHVLK [SIN4]
doa10∆
  protein stability index: 2.58 ± 0.15
pdr5∆
  protein stability index: 2.64 ± 0.11
san1∆
  protein stability index: 3.01 ± 0.14
ubr1∆
  protein stability index: 3 ± 0.12

## VMIAEIPTLAIDSVEVE [RPB3]
doa10∆
  protein stability index: 2.3 ± 0.18
pdr5∆
  protein stability index: 2.65 ± 0.11

## RRRAFKRSQKKHKKKHL [RPB4]
doa10∆
  protein stability index: 3.16 ± 0.091
pdr5∆
  protein stability index: 3.1 ± 0.078
san1∆
  protein stability index: 3.13 ± 0.057
ubr1∆
  protein stability index: 3.46 ± 0.077

## KKLKPIVAKYDPPIIIF [PRP28]
doa10∆
  protein stability index: 2.94 ± 0.069
pdr5∆
  protein stability index: 2.59 ± 0.075
san1∆
  protein stability index: 2.73 ± 0.086
ubr1∆
  protein stability index: 2.37 ± 0.052

## VKSLVDNMITGVTKGYK [RPL9A]
doa10∆
  protein stability index: 2.75 ± 0.081
pdr5∆
  protein stability index: 3.31 ± 0.14
san1∆
  protein stability index: 2.92 ± 0.25
ubr1∆
  protein stability index: 3.11 ± 0.073

## SQNDGFVIIRGSQILSG [RPO31]
pdr5∆
  protein stability index: 3.13 ± 0.17
san1∆
  protein stability index: 2.86 ± 0.16
ubr1∆
  protein stability index: 2.61 ± 0.29

## NYDCKVISIVGGHSLEE [PRP28]
doa10∆
  protein stability index: 2.93 ± 0.055
pdr5∆
  protein stability index: 2.91 ± 0.059
san1∆
  protein stability index: 2.88 ± 0.042
ubr1∆
  protein stability index: 2.83 ± 0.041

## EINYAFSMDEEFKNMDC [SIR3]
doa10∆
  protein stability index: 3.09 ± 0.068
pdr5∆
  protein stability index: 3.14 ± 0.053
san1∆
  protein stability index: 3.22 ± 0.04
ubr1∆
  protein stability index: 3.25 ± 0.048

## PFETFDHASIRRGYQVY [CYT1]
doa10∆
  protein stability index: 2.68 ± 0.048
pdr5∆
  protein stability index: 2.65 ± 0.044
san1∆
  protein stability index: 2.82 ± 0.047
ubr1∆
  protein stability index: 2.9 ± 0.032

## FRNNKNDNYSSDMENDN [REC8]
doa10∆
  protein stability index: 3.44 ± 0.18
pdr5∆
  protein stability index: 3.15 ± 0.23
san1∆
  protein stability index: 3.2 ± 0.17
ubr1∆
  protein stability index: 2.73 ± 0.11

## WNWAKQSLLSLYFEIIH [FAS2]
doa10∆
  protein stability index: 1.7 ± 0.06
pdr5∆
  protein stability index: 1.46 ± 0.057
san1∆
  protein stability index: 1.76 ± 0.15
ubr1∆
  protein stability index: 1.4 ± 0.072

## TMTMDVFNDAHVLNKVT [RPN1]
doa10∆
  protein stability index: 2.26 ± 0.065
pdr5∆
  protein stability index: 2.25 ± 0.053
san1∆
  protein stability index: 2.4 ± 0.073
ubr1∆
  protein stability index: 2.25 ± 0.045

## TIFSVMVEWLESRSFSP [PRP8]
doa10∆
  protein stability index: 2.13 ± 0.077
pdr5∆
  protein stability index: 1.99 ± 0.094
san1∆
  protein stability index: 2.15 ± 0.15
ubr1∆
  protein stability index: 1.88 ± 0.059

## WKIPQNDIPQTESPLKT [SSN2]
doa10∆
  protein stability index: 2.71 ± 0.082
pdr5∆
  protein stability index: 2.23 ± 0.058
san1∆
  protein stability index: 2.13 ± 0.08
ubr1∆
  protein stability index: 2.38 ± 0.039

## SRMRLIRQDVNLGRAVF [PRP8]
doa10∆
  protein stability index: 2.06 ± 0.085
pdr5∆
  protein stability index: 2.31 ± 0.061
san1∆
  protein stability index: 2.04 ± 0.084
ubr1∆
  protein stability index: 2.35 ± 0.054
